Experimental data from the supplement of paper PMC9112550, “Optimization of the antimicrobial peptide Bac7 by deep mutational scanning” (BMC Biology, 2022).
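Also: peptides expressed intracellularly from a pBAD plasmid library in pooled LB shake-flask culture, induced with 0.3% L-arabinose, DNA abundance read by NGS, three biological replicates, DESeq2 with apeglm shrinkage.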

What follows are sequences tested on Escherichia coli TOP10 (assay: shrunken log2 fold change of peptide-encoding DNA abundance (4.5 h post-induction vs induction); higher = less antimicrobial activity (less host growth inhibition)). Conditions: time post-induction: 4.5 h; library: site-saturation at positions 5, 18, 19, 20.
With RRIRTRPPRLPRPRPRPECCPRP the “shrunken log2 fold change” value was 0.348.
In the case of RRIRSRPPRLPRPRPRPEWIPRP, the “shrunken log2 fold change” value is reported as 0.021.
In the case of RRIRPRPPRLPRPRPRPDFSPRP, the “shrunken log2 fold change” value is reported as 0.0658.
For RRIRHRPPRLPRPRPRPDGRPRP, the “shrunken log2 fold change” value was 0.172.
With RRIRNRPPRLPRPRPRPFCPPRP the “shrunken log2 fold change” value was -0.278.
For RRIRGRPPRLPRPRPRPLSPPRP, the “shrunken log2 fold change” value was 0.435.
RRIRERPPRLPRPRPRPPPQPRP was tested, and the “shrunken log2 fold change” value was 0.553.
In the case of RRIRKRPPRLPRPRPRPNTHPRP, the “shrunken log2 fold change” value is reported as -0.125.
RRIRHRPPRLPRPRPRPSGLPRP was tested, and the “shrunken log2 fold change” value was 0.0123.
With RRIRMRPPRLPRPRPRPQQQPRP the “shrunken log2 fold change” value was 0.246.
For RRIRHRPPRLPRPRPRPPALPRP, the “shrunken log2 fold change” value was -0.00181.
In the case of RRIRLRPPRLPRPRPRPCREPRP, the “shrunken log2 fold change” value is reported as 0.251.
RRIRRRPPRLPRPRPRPHYGPRP was tested, and the “shrunken log2 fold change” value was -0.178.
RRIRPRPPRLPRPRPRPYPQPRP was tested, and the “shrunken log2 fold change” value was -0.252.
In the case of RRIRKRPPRLPRPRPRPASNPRP, the “shrunken log2 fold change” value is reported as 0.147.
In the case of RRIRQRPPRLPRPRPRPPNRPRP, the “shrunken log2 fold change” value is reported as -0.131.
For RRIRVRPPRLPRPRPRPGVGPRP, the “shrunken log2 fold change” value was 0.275.
RRIRQRPPRLPRPRPRPQALPRP was tested, and the “shrunken log2 fold change” value was 0.0286.
RRIRSRPPRLPRPRPRPFLDPRP was tested, and the “shrunken log2 fold change” value was -0.149.
For RRIRIRPPRLPRPRPRPEGWPRP, the “shrunken log2 fold change” value was 0.497.
With RRIRSRPPRLPRPRPRPKLRPRP the “shrunken log2 fold change” value was 0.111.
RRIRHRPPRLPRPRPRPNTGPRP was tested, and the “shrunken log2 fold change” value was 0.121.
For RRIRMRPPRLPRPRPRPKGCPRP, the “shrunken log2 fold change” value was -0.0257.
RRIRQRPPRLPRPRPRPHGQPRP was tested, and the “shrunken log2 fold change” value was 0.184.
For RRIRARPPRLPRPRPRPIKYPRP, the “shrunken log2 fold change” value was -0.38.
With RRIRIRPPRLPRPRPRPFQGPRP the “shrunken log2 fold change” value was 0.0801.
For RRIRSRPPRLPRPRPRPYAEPRP, the “shrunken log2 fold change” value was -0.235.
RRIRCRPPRLPRPRPRPAYRPRP was tested, and the “shrunken log2 fold change” value was -0.194.
With RRIRARPPRLPRPRPRPNCKPRP the “shrunken log2 fold change” value was -0.0213.
With RRIRMRPPRLPRPRPRPCPYPRP the “shrunken log2 fold change” value was -0.126.
In the case of RRIRNRPPRLPRPRPRPWASPRP, the “shrunken log2 fold change” value is reported as 0.00581.
With RRIRWRPPRLPRPRPRPACKPRP the “shrunken log2 fold change” value was -0.0942.
For RRIRKRPPRLPRPRPRPMCEPRP, the “shrunken log2 fold change” value was 0.12.
RRIRARPPRLPRPRPRPMLEPRP was tested, and the “shrunken log2 fold change” value was 0.455.
RRIRCRPPRLPRPRPRPMEYPRP was tested, and the “shrunken log2 fold change” value was -0.17.
RRIRSRPPRLPRPRPRPVTHPRP was tested, and the “shrunken log2 fold change” value was -0.152.
With RRIRNRPPRLPRPRPRPRRQPRP the “shrunken log2 fold change” value was 0.227.
With RRIRIRPPRLPRPRPRPKQKPRP the “shrunken log2 fold change” value was -0.12.
In the case of RRIRTRPPRLPRPRPRPLPMPRP, the “shrunken log2 fold change” value is reported as -0.0573.
In the case of RRIRHRPPRLPRPRPRPWTLPRP, the “shrunken log2 fold change” value is reported as -0.00151.
RRIRCRPPRLPRPRPRPLKRPRP was tested, and the “shrunken log2 fold change” value was -0.052.
For RRIRCRPPRLPRPRPRPLEEPRP, the “shrunken log2 fold change” value was 0.408.
For RRIRFRPPRLPRPRPRPRSAPRP, the “shrunken log2 fold change” value was 0.379.
For RRIRGRPPRLPRPRPRPLFCPRP, the “shrunken log2 fold change” value was 0.367.
In the case of RRIRWRPPRLPRPRPRPRSNPRP, the “shrunken log2 fold change” value is reported as -0.133.
RRIRARPPRLPRPRPRPNYFPRP was tested, and the “shrunken log2 fold change” value was -0.251.
RRIRARPPRLPRPRPRPPNRPRP was tested, and the “shrunken log2 fold change” value was 0.499.
For RRIRARPPRLPRPRPRPCCDPRP, the “shrunken log2 fold change” value was 0.404.
In the case of RRIRIRPPRLPRPRPRPVAHPRP, the “shrunken log2 fold change” value is reported as 0.0168.
In the case of RRIRMRPPRLPRPRPRPVSVPRP, the “shrunken log2 fold change” value is reported as 0.699.
In the case of RRIRARPPRLPRPRPRPWWFPRP, the “shrunken log2 fold change” value is reported as 0.049.
For RRIRIRPPRLPRPRPRPHWLPRP, the “shrunken log2 fold change” value was -0.49.
In the case of RRIRYRPPRLPRPRPRPRPLPRP, the “shrunken log2 fold change” value is reported as -0.3.
In the case of RRIRSRPPRLPRPRPRPKYSPRP, the “shrunken log2 fold change” value is reported as -0.253.
RRIRWRPPRLPRPRPRPKIIPRP was tested, and the “shrunken log2 fold change” value was -0.0886.
For RRIRQRPPRLPRPRPRPGVKPRP, the “shrunken log2 fold change” value was 0.0204.
With RRIRDRPPRLPRPRPRPGVGPRP the “shrunken log2 fold change” value was 0.519.
For RRIRYRPPRLPRPRPRPPCEPRP, the “shrunken log2 fold change” value was -0.468.
In the case of RRIRLRPPRLPRPRPRPPYHPRP, the “shrunken log2 fold change” value is reported as -0.317.
For RRIRSRPPRLPRPRPRPDSYPRP, the “shrunken log2 fold change” value was -0.221.
For RRIRARPPRLPRPRPRPPRRPRP, the “shrunken log2 fold change” value was 0.923.
In the case of RRIRGRPPRLPRPRPRPNREPRP, the “shrunken log2 fold change” value is reported as -0.0791.
With RRIRRRPPRLPRPRPRPLDKPRP the “shrunken log2 fold change” value was -0.152.
In the case of RRIRARPPRLPRPRPRPGNMPRP, the “shrunken log2 fold change” value is reported as -0.0598.
For RRIRVRPPRLPRPRPRPKDTPRP, the “shrunken log2 fold change” value was -0.038.
With RRIRNRPPRLPRPRPRPWYDPRP the “shrunken log2 fold change” value was -0.0695.
With RRIRSRPPRLPRPRPRPGICPRP the “shrunken log2 fold change” value was 0.137.
In the case of RRIRTRPPRLPRPRPRPCIWPRP, the “shrunken log2 fold change” value is reported as -0.0258.
RRIRERPPRLPRPRPRPVRYPRP was tested, and the “shrunken log2 fold change” value was -0.582.
RRIRRRPPRLPRPRPRPWSEPRP was tested, and the “shrunken log2 fold change” value was -0.142.
In the case of RRIRGRPPRLPRPRPRPCKIPRP, the “shrunken log2 fold change” value is reported as -0.189.
RRIRSRPPRLPRPRPRPDDTPRP was tested, and the “shrunken log2 fold change” value was -0.144.
With RRIRPRPPRLPRPRPRPKLYPRP the “shrunken log2 fold change” value was 0.0311.
In the case of RRIRSRPPRLPRPRPRPVPQPRP, the “shrunken log2 fold change” value is reported as 0.0741.
In the case of RRIRERPPRLPRPRPRPQVMPRP, the “shrunken log2 fold change” value is reported as -0.303.
In the case of RRIRPRPPRLPRPRPRPNCSPRP, the “shrunken log2 fold change” value is reported as -0.132.
With RRIRMRPPRLPRPRPRPDHLPRP the “shrunken log2 fold change” value was -0.0674.
In the case of RRIRYRPPRLPRPRPRPEWVPRP, the “shrunken log2 fold change” value is reported as -0.0265.
RRIRSRPPRLPRPRPRPSSMPRP was tested, and the “shrunken log2 fold change” value was -0.422.
RRIRFRPPRLPRPRPRPGCAPRP was tested, and the “shrunken log2 fold change” value was 1.03.
For RRIRHRPPRLPRPRPRPRFTPRP, the “shrunken log2 fold change” value was 0.007.
With RRIRWRPPRLPRPRPRPTSAPRP the “shrunken log2 fold change” value was 0.389.
RRIRFRPPRLPRPRPRPSPAPRP was tested, and the “shrunken log2 fold change” value was 0.176.
RRIRERPPRLPRPRPRPRTDPRP was tested, and the “shrunken log2 fold change” value was 0.193.
With RRIRMRPPRLPRPRPRPLKFPRP the “shrunken log2 fold change” value was 0.426.
With RRIRYRPPRLPRPRPRPDCGPRP the “shrunken log2 fold change” value was -0.398.
RRIRSRPPRLPRPRPRPPWKPRP was tested, and the “shrunken log2 fold change” value was -0.0556.
RRIRVRPPRLPRPRPRPPYKPRP was tested, and the “shrunken log2 fold change” value was -0.371.
For RRIRERPPRLPRPRPRPICRPRP, the “shrunken log2 fold change” value was 0.0559.
RRIRDRPPRLPRPRPRPALYPRP was tested, and the “shrunken log2 fold change” value was 0.468.
For RRIRCRPPRLPRPRPRPTSWPRP, the “shrunken log2 fold change” value was 0.0567.
